{"source": "patent US12624096B2", "about": "“Anti-tau antibodies and methods of use thereof” (GTInvent Limited, priority 2020, dated 2026)", "molecules": {"B1": {"name": "3bG4: anti-tau clone, SEQ ID NO: 425 (protein)", "scFv": "QVQLQESGPSLVKPSQTLSLTCTISGFSLISNGVGWVRQAPGKVPEWVGDIASSGKAYSNPALKSRLSITRDTSKSQVSLSLRSVTTEDTAVYYCVRCRDGGVTYGYDIDYWGPGLLVTVSSEGKSSGASGESKVDDQAVLTQPSSVSKSLGQSVSITCSGSTSNVGSGNDVSWFQQVPGSAPKLLFYGATNRASGVPDRFSGSRSGNTATLTITSLQAEDEADYYCGSYDSNSGGIFGSGTRLTVLG", "modifications": "3bG4 amino acid sequence"}, "B2": {"name": "CE3: anti-tau clone, SEQ ID NO: 367 (protein)", "scFv": "QVRLQESGPSLVKPSQTLSVTCTVSGFSLISNAVGWVRQAPGKVPESLAGCSSDGKCYYNSALKSRLDITRDTSKNQISLSLSSVTTDDAAVYYCTRGYYPVYGYDYLGTIDYWGPGLLVTVSSEGKSSGASGESKVDDQAVLTQPSSVSGSLGQRVSITCSGSSSNVGRNDVAWFQQLPGSGLRTIIYGTTSRPSGIPDRFSGSKSGVTATLTIDSLQAEDEADYFCASGDSSAINDIFGSGTRLTVLG", "modifications": "CE3 amino acid sequence"}, "B3": {"name": "3aB7: anti-tau clone, SEQ ID NO: 420 (protein)", "scFv": "QVQLQESGPSLVKPSQTLSLTCTVSGFSLTSNGVGWVRQAPGKVPEWVGDKSSAGKTYGNPALKSRLSITRDTSKSQVSLSLSSVTTEDTAVYYCVRCRDGGVTYGYDVDYWGPGLLVTVSSEGKSSGASGESKVDDQAVLTQPSSVSKSLGQSVSITCSGSSSNVGYGDVVSWFQQFPGSAPKLLIFGTTTRASGVPDRFSGSRSGNAATLTINSLQAEDEADYYCASFDSDSGGIAGSGTRLTVLG", "modifications": "3aB7 amino acid sequence"}, "B4": {"name": "3aA6: anti-tau clone, sequence in b345 (protein)", "scFv": "QVRLQESGSSLVKPSQTLSLVCTVSGFPLTSNAVGWVRQAPGKAPEWLGLIDIDGDTAYNPALESRLSITRDTSKSQVSLSLSSVAIEDTAVYYCARHYDKWGYADSIDYWGPGLLVTVSSEGKSSGASGESKVDDQALLTQPSSVFGSLGQRVSITCSGSSSNVGYGDYVGWYQQVPGSAPKLLIYDATTRASGVPDRFSGSRSGNTATLTISSLQAEDEADYYCASYQNERSGVFGSGTRLTVLG", "modifications": "3aA6 amino acid sequence"}, "B5": {"name": "3aG3: anti-tau clone, SEQ ID NO: 424 (protein)", "scFv": "QVQLQESGPSLVKPSQTLSLTCTVSGFSLSSNGVGWVRQAPGKVPEWVGDISSSGKAYANPALKSRLSITRDTAKTQVFLSLSSVTTEDTAVYYCVRCRDGGVSYGYDIDYWGPGLLVTVSSEGKSSGASGESKVDDQAVLTQPPSVSGSPGQRVSITCSGSSSNIGGGNYLSWFQQVPGSAPKLLIYGATSRASGVPDRFSGSRSGNTATLTISSLQAEDEADYYCASFDTSSGGIFGAGTRLTVLG", "modifications": "3aG3 amino acid sequence"}, "B6": {"name": "3bD11 (protein)", "scFv": "RVRLQGSGPSLVKPSQTLSLTCTVSGFSFDSYYVGWVRQAPGKALEWLGNIYSTGRAFYNPALKSRLSITRDTSKSQVSLSVSSVTIEDTALYYCVRGSYYHGGGNGMVDFFDYWSPGLLVTVSSEGKSSGASGESKVDDQVVRTQPSSVSGSLGQRVSITCSGSSSNVGYGNYVGWFQQVPGSAPKLLIYAATSRASGVPDRFSGSRSGNTATLTIDSLQAEDEADYYCSSYQRGNTGVFGSGTRLTVLG"}, "B7": {"name": "MD9/MoD9: anti-tau clone, SEQ ID NO: 373 (protein)", "scFv": "QVRLQESGPSLVKSSQTLSLTCTVSGFSLTRESIAWVRQAPGKVPEWLGGVGIDGTSYYSPALKSRLSITRDTSKSQASLSLSSVATEDTAMYYCARNYIDFEYWGPGLLVTVSSEGKSSGASGESKVDDQAVLTQLSSVSGSLGQRISITCSGSSSNVGIYDVSWFQQLPGSGLRTVIYGTNNRPSGVPDRFSGSRSGNTATLTISSLQSEDEAIYYCAAGDSSTIAVFGSGTRLTVLG", "modifications": "MD9 amino acid sequence"}, "B8": {"name": "3bF4: anti-tau clone, SEQ ID NO: 421 (protein)", "scFv": "QVQLQESGPSLVKPSQTLSLTCTVSGFSLSSNGVGWVRQAPGKVPEWLGDISSVGKKYANPALKSRLSFTRDTSKSQVSLSLSSVTTEDTAVYYCVKCRDGGVTYGYDIDYWGPGLLVTVSSEGKSSGASGESKVDDQAVLTQPSSVSKSTGQTVSITCSGSSSNVGLRNYVTWFQQVPGSAPKLLIYGATSRASGIPDRFSGSRSGNTATLIISSLQAEDEADYYCASADTNDGGVFGSGTRLTVLG", "modifications": "3bF4 amino acid sequence"}, "B9": {"name": "3aH6: anti-tau clone, SEQ ID NO: 423 (protein)", "scFv": "QVQLQESGPSLVKPSQTLSLTCTVSGFSLSSNGVGWVRQAPGKVPEWLGDISSVGKKYANPALKSRLSFTRDTSKSQVSLSLSSVTTEDTAVYYCVKCRDGGVTYGYDIDYWGPGLLVTASSEGKSSGASGESKVDDQAVVTQPSSVSGSLGQSVSITCSGSSGNVGYGDYVSWFQQFHGSAPKLLIYGATNLASGVPARFSGSRSGNTATLTISSLHAEDEADYYCASYDSSSGGVFGSGTRLTVLG", "modifications": "3aH6 amino acid sequence"}}, "key": {"[1]": {"molecular_target": "hT40 (Homo sapiens, UniProt P10636)", "sequence (P10636 1-441 isoform P10636-8)": "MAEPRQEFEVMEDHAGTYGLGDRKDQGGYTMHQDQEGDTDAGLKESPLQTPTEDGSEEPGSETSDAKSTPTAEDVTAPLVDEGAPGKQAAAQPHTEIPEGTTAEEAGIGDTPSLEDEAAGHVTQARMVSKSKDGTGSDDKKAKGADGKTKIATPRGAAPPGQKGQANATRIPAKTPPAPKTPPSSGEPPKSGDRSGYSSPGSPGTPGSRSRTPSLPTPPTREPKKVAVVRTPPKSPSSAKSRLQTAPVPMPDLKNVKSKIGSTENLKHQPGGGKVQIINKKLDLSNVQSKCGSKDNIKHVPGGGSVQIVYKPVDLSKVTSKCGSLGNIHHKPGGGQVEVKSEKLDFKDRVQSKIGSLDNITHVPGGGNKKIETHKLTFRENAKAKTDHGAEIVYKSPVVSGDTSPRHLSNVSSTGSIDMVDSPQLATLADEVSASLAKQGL", "experiment": "Biacore X100 SPR, scAb captured via anti-HuCk, hT40 as analyte", "format": "binding", "procedure": "Surface plasmon resonance (SPR) is widely regarded as the gold standard for real time measurement of protein-protein interactions such as antibody binding. All SPR experiments were carried out using a Biacore X100 machine and HBS EP+ running buffer (GE Healthcare). A ‘capture’ method was followed for affinity measurements, where an anti-human constant kappa chain (HuCk) antibody was conjugated to the surface of a CM5 sensor chip using an amine coupling kit and scAb molecules were immobilised via their HuCk domain. Amine coupling is a very common approach for immobilising the ligand to the chip surface. […] The capture antibody was diluted 1/100 in 10 mM Sodium acetate buffer pH 5.0 and passed over the activated chip surface for a period of at least 420 s. Final ligand immobilisation levels over 12,000 RU were deemed to be satisfactory.\nFollowing immobilisation, the level of each scAb to be captured was identified using the standard SPR equation with a theoretical RMax of 100 RU. Analyte MW refers to the molecular weight of hT40 or dGA/dGAE molecules, while ligand MW refers to the molecular weight of the scAbs tested. RL is the desired capture level and S refers to the stoichiometric ratio:\nThe scAb to be tested was added only to flow cell 2 so that flow cell 1 could act as a control to subtract any interaction with the analyte and the chip surface. Both single and multi-cycle runs were utilised using wizards developed in the Biacore X100 control software which are both accepted methods of kinetic analysis (Karlsson, R., et al. Analyzing a kinetic titration series using affinity biosensors (2006) Analytical Biochemistry 349:136-47). The multi-cycle protocol was as follows-Three start-up cycles composed of an initial capture, to the desired level, of the scAb to be tested was performed followed by a 30 s injection of glycine buffer pH 2.0 after each cycle to regenerate the chip surface. […] Following three start-up cycles increasing concentrations (0.15625 nM-100 nM) of the target to be tested were added to the chip surface after the desired scAb capture. The target was added for a 120 s association period and 420 s dissociation period followed by another regeneration, 30 s injection of glycine buffer pH 2.0 in between each cycle.\nThe single cycle kinetics protocol was similar and utilised the same level of scAb capture. Three start-up cycles were used followed by 5 increasing concentrations of the analyte (6.25 nM-100 nM) for an association period of 120 s followed by a dissociation period of 420 s for each concentration. In single cycle kinetics the regeneration step was performed only after the final analyte concentration was added. Binding responses were analysed in Biacore X100 evaluation software and data fitted to a 1:1 binding model to obtain kinetic and affinity characterisation."}, "[2]": {"molecular_target": "htau40 (Homo sapiens, UniProt P10636)", "sequence (P10636 1-441 isoform P10636-8)": "as above", "experiment": "Biacore X100 SPR of anti-tau mAbs on immobilised htau40", "format": "binding", "procedure": "For anti-tau mAb SPR measurements, htau40 was conjugated to the surface of a CM5 sensor chip using amine coupling as explained previously. Briefly, 2 μg/mL htau40 in 10 mM Sodium acetate buffer (pH 4.0) was passed over the activated chip surface (EDC/NHS) in flow cell 2 for a period for 45 s followed by blocking with 1 M ethanolamine-HCl PH 8.5. Flow cell 1 was set up as reference control and blocked simultaneously. Final immobilisation level of htau40 (Rmax) was approximately 250 RU. Following a minimum of three start-up cycles, increasing concentrations (0.78 nM-25 nM) of the mAb in HBS-EP+ buffer was added at a rate of 30 μL/min to the chip. The mAb was added for a 120 s association period and 600 s dissociation period followed by a regeneration cycle of 30 s injection of glycine buffer pH 1.5 in between each cycle. Binding responses were analysed in Biacore X100 evaluation software and data fitted to a 1:1 binding model to obtain kinetic and affinity characterisation.\nFor anti-tau mAb SPR measurements (Biacore X100™) and epitope mapping, the same methodologies described above (see Example 16) were followed. Kinetic rates and equilibrium binding constants of additional anti-tau mAbs and the regions recognised on hT40 are given in the Table 25 below"}, "[3]": {"settings": "'3a' and '3b' scAbs, Table 25, hT40"}, "[4]": {"settings": "newly converted mAbs, Table 25 (Example 28), hT40"}, "[5]": {"settings": "mAb, Table 27, immobilised hT40"}}}
{"molecule": "B1", "values": [{"measurement": "ka", "setting": "[1]; [3]", "value": "6.669e+06", "unit": "M⁻¹ s⁻¹"}, {"measurement": "kd", "setting": "[1]; [3]", "value": 0.05966, "unit": "s⁻¹"}, {"measurement": "ka", "setting": "[2]; [4]", "value": "4.54e+06", "unit": "M⁻¹ s⁻¹"}, {"measurement": "kd", "setting": "[2]; [4]", "value": 0.0002964, "unit": "s⁻¹"}]}
{"molecule": "B2", "values": [{"measurement": "ka", "setting": "[1]; scAb, Table 23, T441 (hT40)", "value": 174500, "unit": "M⁻¹ s⁻¹"}, {"measurement": "kd", "setting": "[1]; scAb, Table 23, T441 (hT40)", "value": 0.000662, "unit": "s⁻¹"}, {"measurement": "ka", "setting": "[2]; [5]", "value": 103000, "unit": "M⁻¹ s⁻¹"}, {"measurement": "kd", "setting": "[2]; [5]", "value": 0.001718, "unit": "s⁻¹"}]}
{"molecule": "B3", "values": [{"measurement": "ka", "setting": "[1]; [3]", "value": 207200, "unit": "M⁻¹ s⁻¹"}, {"measurement": "kd", "setting": "[1]; [3]", "value": 0.01435, "unit": "s⁻¹"}]}
{"molecule": "B4", "values": [{"measurement": "ka", "setting": "[1]; [3]", "value": 19000, "unit": "M⁻¹ s⁻¹"}, {"measurement": "kd", "setting": "[1]; [3]", "value": 0.0188, "unit": "s⁻¹"}]}
{"molecule": "B5", "values": [{"measurement": "ka", "setting": "[1]; [3]", "value": 62940, "unit": "M⁻¹ s⁻¹"}, {"measurement": "kd", "setting": "[1]; [3]", "value": 0.0003869, "unit": "s⁻¹"}, {"measurement": "ka", "setting": "[2]; [4]", "value": "1.532e+07", "unit": "M⁻¹ s⁻¹"}, {"measurement": "kd", "setting": "[2]; [4]", "value": 0.004751, "unit": "s⁻¹"}]}
{"molecule": "B6", "values": [{"measurement": "ka", "setting": "[2]; [4]", "value": "2.671e+06", "unit": "M⁻¹ s⁻¹"}, {"measurement": "kd", "setting": "[2]; [4]", "value": 0.003979, "unit": "s⁻¹"}]}
{"molecule": "B7", "values": [{"measurement": "ka", "setting": "[2]; [4]", "value": 66200, "unit": "M⁻¹ s⁻¹"}, {"measurement": "kd", "setting": "[2]; [4]", "value": 0.001462, "unit": "s⁻¹"}]}
{"molecule": "B8", "values": [{"measurement": "ka", "setting": "[1]; [3]", "value": 109300, "unit": "M⁻¹ s⁻¹"}, {"measurement": "kd", "setting": "[1]; [3]", "value": 0.01532, "unit": "s⁻¹"}]}
{"molecule": "B9", "values": [{"measurement": "ka", "setting": "[1]; [3]", "value": "2.757e+06", "unit": "M⁻¹ s⁻¹"}, {"measurement": "kd", "setting": "[1]; [3]", "value": 0.009868, "unit": "s⁻¹"}, {"measurement": "ka", "setting": "[2]; [4]", "value": "3.128e+06", "unit": "M⁻¹ s⁻¹"}, {"measurement": "kd", "setting": "[2]; [4]", "value": 0.0001522, "unit": "s⁻¹"}, {"measurement": "Kd", "setting": "[2]; newly converted mAbs, Table 25 (Example 28), read-out: kD (M) for hT40 binding", "value": "4.9e-11", "unit": "M"}]}
